Measurements taken from PMC11273545.
Where “and” joins values, the source holds several entries; their conditions need not be identical. Equal entries are not always repeated.

Experiments:
[1] = target: multimeric recombinant RBD protein (SARS-CoV-2 S protein residues 331-589 linked to the trimerization region of bacteriophage T4 and six histidines) (SARS-CoV-2 (Wuhan strain) | bacteriophage T4) (UniProt P0DTC2); test: SEC; Superdex 200 column (30 x 1 cm) in TBS, 0.4 mL/min; calibrated with BSA (66 and 132 kDa), carbonic anhydrase (30 kDa) and beta-amylase (200 kDa); 135 kDa fractions pooled and re-applied
[2] = target: multimeric recombinant RBD protein (SARS-CoV-2 S protein residues 331-589 linked to the trimerization region of bacteriophage T4 and six histidines) (SARS-CoV-2 (Wuhan strain) | bacteriophage T4) (UniProt P0DTC2); test: cross-linking

multimeric recombinant RBD protein (SARS-CoV-2 S protein residues 331-589 linked to the trimerization region of bacteriophage T4 and six histidines) (from UniProt P0DTC2 331-589)
stoichiometry N [1]: 3 | stoichiometry N [2]: 3 and 6
